# The nanobody polyreactivity screen of Harvey et al. (2022)
# Assay: yeast display, Sf9 membrane polyspecificity reagent, FACS + sequencing; frameworks hold sequencing errors
# Summary of the method: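 A nanobody's polyreactivity label depends on the gate it was sorted from. Yeast display cells were stained with 10% biotinylated, detergent-solubilized Sf9 membrane reagent for 1 hour at 4 °C, enriched on streptavidin microbeads and sorted by FACS. The low and high (top ~1%) gates were set on anti-HA fluorescence for expression and streptavidin fluorescence for reagent binding.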
row,Sequence,polyreactivity (PSR sort gate)
1,QVQLVESGGGLVQAGGSLRLSCAASGRTFVRYAMGWYRQAPAKERELVAVNSRRGGSTYYADSVKGRFTISRDNAKNTVYLQMNSLKPVDTAVYYFAADYVRSKYDYWGQGTQVTVSS,high polyreactivity
2,QVQLVESGGGLVQAGGSLRLSCAASGRTFVRYAMGWYRQAPGKERELVAAISGDGASTYYADSVKGRFTISRDNAKNTVYLQMNSLKPEDTAVYYCNARSIRRYYYPDYDYWGQGTQVTVSS,high polyreactivity
3,QVQLVESGGGLVQAGGSLRLSCAASGRTFVSNTMGWYRQAPGKERELVAAINYSVASTNYADSVKGRFTISRDNAKNTVYLQMNSLKPEDTAVYYCNRASAGWGQGTQVTVSS,low polyreactivity
4,QVQLVESGGGLVQAGGSLRLSCAASGRTFVSYAMGWYRQAPGKETELVAAIDSSGTSTYYADSVKGRFTISRDNAKNTVYLQMNSLKPEDTAVYYCAKAWPDHWYSRYDYWGQGTQVTVSS,low polyreactivity
5,QVQLVESGGGLVQAGGSLRLSCAASGRTFVSYVMGWYRQAPGKERELVAAIRRRGGRTYYADSVKGRFTISRDNAKNTVYLQMNSLKPEDTAVYYCAAAQPGTNAYRVGSWGQGTQVTVSS,high polyreactivity
6,QVQLVESGGGLVQAGGSLRLSCAASGRTFVTNAMGWYRQAPGKERELVAAISSNGGSTYYADSVKGRFTISRDNAKNTVYLQMNSLKPEDTAVYYCNAEGQPLYVSWHDHRYIYGFDYWGQGTQVTVSS,low polyreactivity
7,QVQLVESGGGLVQAGGSLRLSCAASGRTFVTNAMGWYRQAPGKERELVAAISSSGGSTYYADSVKGRFTISRDNAKNTVYLQMNSLKPEDTAVYYCAVGGQTKGQYDYWGQVTQVTVSS,low polyreactivity
8,QVQLVESGGGLVQAGGSLRLSCAASGRTFVTNAMGWYRQAPGKERELVAAISYSGGSTTYADSVKGRFTISRDNAKNTVYLQMNSLKPEDTAVYYCNAQEDLVPKLRYYPPSDYWGQGTQVTVSS,low polyreactivity
9,QVQLVESGGGLVQAGGSLRLSCAASGRTFVTYAMGWYRPAPGKERELVAAITGSGGRTYYADSVKGRFTISRDNAKLTVYLQMNRLKPEDTAVYYCAKDHPSGRQYDYWGQGTQVTVSS,high polyreactivity
10,QVQLVESGGGLVQAGGSLRLSCAASGRTFVTYAMGWYRQAPGKERELVAAISASGGSTYYADSVKGRFTISRDNAKNTVYLQMNSLKTEDTAVYYCAKTYFLATPYGYWGQGTQVTVSS,low polyreactivity
11,QVQLVESGGGLVQAGGSLRLSCAASGRTFVVNAMGWYRQAPGKERELVAAIYADSVKGRFTISRDNAKNTVYLQMNSLKPEDTAVYYCAASGGTWVYYRPEYDYWGQGTQVTVSS,low polyreactivity
12,QVQLVESGGGLVQAGGSLRLSCAASGRTFVVNDMGWYRQAPGNDRELVAAINYNAGSTFYADSVKGRFTISRDNAKKTVYLQMNSLKPEATAVYYCATDVYGYVEYDYWGQGTQVTVSS,low polyreactivity
13,QVQLVESGGGLVQAGGSLRLSCAASGRTFVVYAMGWYRQAPGKERELVASISSIGDITNYADSVKGRFTISRDNAKNTVYLQMNSLKPEYTAVYYCTAPIGGSYNTRRAAEYDYWGQGTQVTVSS,low polyreactivity
14,QVQLVESGGGLVQAGGSLRLSCAASGRTFVVYAMGWYRQAPGKERELVAVISFTGDSTFYADSVKGRFTISRDNAKNTVYLQMNSLKPEDTAVYYCAADFRRVFSKYSYYLYFDFDYWGQGSQVTVSS,low polyreactivity
15,QVQLVESGGGLVQAGGSLRLSCAASGRTFVYNAMGWYRQAPGKERELVAAIDWSGGSTYYADSVKGRFTISRDNAKNTVYLQMNSLKPEDTAVYYCAADYYYPSQMDYWGQGTQVTVSS,low polyreactivity
16,QVQLVESGGGLVQAGGSLRLSCAASGRTFVYNAMGWYRQAPGKERELVAAISSDGASTYYADSVKGRFTISRDNAKNTVYLQMNSLKPEDTAVYYCAADLLVSWWLDYDYWGQGTQVTVSS,low polyreactivity

row,Sequence,polyreactivity (PSR sort gate)
1,QVQLVESGGGLVQAGGSLRLSCAASGRTFVYNAMGWYRQAPGKERELVAAISSGGGTNYADSVKGRFTISRDNAKNTVYLQMNSLKPEDTAVYYCAAGFDGSRHPGFDSWVQGTQVTVSS,low polyreactivity
2,QVQLVESGGGLVQAGGSLRLSCAASGRTFVYNAMGWYRQAPGKERELVAAISSSGGSTRYADSVKGRFTISRDNAMNTVYLQMNSLKPEDTAVYYCATRTKAYLYTYYYWGQGTQVTVSS,high polyreactivity
3,QVQLVESGGGLVQAGGSLRLSCAASGRTFVYYAMGWYRQAPGKEREFVAAISRSGGRTSYADSVKGRFTISRDNAKNTVYLQMNSLKPEDTAVYYCAAEKRTQPTSREYYWGQGTQVTVSS,high polyreactivity
4,QVQLVESGGGLVQAGGSLRLSCAASGRTFVYYAMGWYRQAPGKERELVAAISRSGSTYYADSVKGRFTISRDNAKNTVYLQMNSLKPEDTAVYYCAARSVYTGRPYYYWGQGTQVTVSS,high polyreactivity
5,QVQLVESGGGLVQAGGSLRLSCAASGRTFVYYAMGWYRQAPGKERELVAAITFSGGSTYYADSVKGRFTISRDNAKNTVYLQMNSLKPEDTAVYYCAAQYRYSYPLGDYWGQGTQVTVSS,low polyreactivity
6,QVQLVESGGGLVQAGGSLRLSCAASGRTFWANTMGWYRQAPGKEREFVAAISGRDVSTYYADSVKGRFTISRDNAMNTVYLQMNSLKPEDTAVYYCAAGNLYYAEYDYWGQGTQVTVSS,low polyreactivity
7,QVQLVESGGGLVQAGGSLRLSCAASGRTFWDYAMGWYRQAPGKERELVAAITGGDSTYADSVKGRFTISRDNAKNTVYLQMNSLKPEDTAVYYCNADSTWDPYVRWALLYEYWGQGTQVTVSS,low polyreactivity
8,QVQLVESGGGLVQAGGSLRLSCAASGRTFWFNAMGWYRQAPGKEREFVAAISWRGGSTYYADSVKGRFTISRDNAKNTVYLQMNSLKPEDTAVYYCAVDGEYYSDVYLYYRWDDYWGQGTQVTVSS,low polyreactivity
9,QVQLVESGGGLVQAGGSLRLSCAASGRTFWFYGMGWYRQAPGKEREFVARISASGGSTYYADSVKGRYTISRDNAKNTVYLQMNSLKPEDTAVYYCARDTPWRYYYWGQGTQVTVSS,high polyreactivity
10,QVQLVESGGGLVQAGGSLRLSCAASGRTFWGNAMGWYRQAPGKDRELVAAITSGGSTYYADSVKGRFTISRDNAKNTVYLQMNSLKPEDTAVYYCATRRIYKWYRYYYWGQGTQVTVSS,high polyreactivity
11,QVQLVESGGGLVQAGGSLRLSCAASGRTFWGYVKGWYRQAPGKERELVAAITSSTGRTYYADSVKGRFTISRDNAKNTVYLQMNSLKPEDTAVYYCAAGYNGYGLQYYYWGQGTQVTVSS,high polyreactivity
12,QVQLVESGGGLVQAGGSLRLSCAASGRTFWKNTMGWYSQAPGKERELVAVISSGGVSTSYADSVTGRFTISRDKATNTVYLHMNSLKPEDTAVYYCAADGYYIGPYDYWGQGTQVTVSS,low polyreactivity
13,QVQLVESGGGLVQAGGSLRLSCAASGRTFWKYAMGWYRQAPGKERELVAAITASGARTYYADSVKGRFTISRDNAKNTVYLQMNSLKPEDTAVYYCNAGSVSDRQMDYWGQGTEVTVSS,low polyreactivity
14,QVQLVESGGGLVQAGGSLRLSCAASGRTFWKYAMGWYRQAPGKERELVAAITSSGGSTYYADSVKGRFTISRDNAKNTVYLQMNSLKPEDTAVYYCAAPGWGLGYNYWGQGTQVTVSS,low polyreactivity
15,QVQLVESGGGLVQAGGSLRLSCAASGRTFWKYARGWYRQAPGKERELVAAISSSGGNTYYADSVKGRFTISRDNAKNTVYLQMNSLKPEDTAVYYCAARLPRGAYYYWGQGTQVTVSS,high polyreactivity
16,QVQLVESGGGLVQAGGSLRLSCAASGRTFWKYVMGWYRQAPGKERELVAVISRPAGSTYYADSVKGRFTISRDNAKNTVYLQMNSLKPEDTAVYYCAKRPKNKPVLGDYDHWGQGTQVTVSS,low polyreactivity
